{
  "source": "paper PMC7337043",
  "binders": {"B1": {"name": "Fab of monoclonal antibody ZAb_FLEP (Fab, V domains shown)", "VH": "EVQLLESGGGLVQPGGSLRLSCAASGFSFSTYSMHWVRQAPGKGLEWVSAISGEGDSAYYADSVKGRFTISRDNSKNTLYLQMNKVRAEDTAVYYCVGGYSNFYYYYTMDAWGQGTMVTVSS", "VL": "DIVMTQSPASLSLSPGERATLSCRATQSISTFLAWYQQKPGQAPRLLIYDASTRASGIPARFSGSRSGTDFTLTITRLEPEDFAVYYCQQRYNWPPYSFGQGTKLEIK"}},
  "molecular_target": "mature Zika virus (ZIKV) virion, icosahedral shell of 180 copies each of the E protein and M protein (Zika virus)",
  "test": "cryo-EM structure; purified ZIKV virions (10 mM Tris-HCl pH 8.0, 120 mM NaCl, 1 mM EDTA) mixed with purified Fab (15 mM Tris-HCl pH 8, 150 mM NaCl) at E protein:Fab molar ratio 1:2; single particle analysis with icosahedral symmetry, 4.1 Å",
  "data": [
    {"binder": "B1", "values": [
      {"measurement": "stoichiometry N (Fab molecules per virion)", "value": 120}
    ]}
  ]
}
